Values quoted from earlier work in article PMC2478715.

System: HMGB1 (purified from mammalian source) (rat (liver nuclei), human (HeLa) or monkey (CV1); preparation per gel not specified)
Test: cited value; method not stated here
Conditions: 50 mM NaCl, 25 mM Tris-HCl pH 7.5, 1 mM DTT, 1 mM EDTA, 0.1% Triton X-100, 100 ug/mL BSA, 2% glycerol, 25 uL, 20 min at 37 C; 4% PAGE in 0.5x TBE at room …

hcDNA (hemicatenated DNA loop, 120 bp fragment)
Kd: < 0.15 pM
